Reference: article doi:10.1101/2021.07.09.451618

Target: F-actin, rabbit skeletal muscle (rabbit) (UniProt P68135)

Substance: M15-2IQ : ELC : RLC complex (1:1:1), wild-type MYO15 motor domain (from UniProt P60661 1-151)
- kcat: extrapolated maximum catalytic rate of the actin-activated ATPase: 5.8 s⁻¹

Substance: M15-2IQ : ELC : RLC complex (1:1:1), jordan (p.D1647G) MYO15 motor domain (from UniProt P60661 1-151)
- kcat: extrapolated maximum catalytic rate of the actin-activated ATPase: 0.87 s⁻¹
